Measured values from patent US20110172168A1 (MEDIGENE, published 2011).
Substitutions are numbered along the chain they refer to. Where “and” joins values, the source holds several entries; their conditions need not be identical. Equal entries are not always repeated.

B1: soluble high affinity c83 (SEQ ID NO: 19) ILT-like polypeptide (receptor)
chain: MAGHLPKPTLWAEPGSVITMDQPVTLRCQGGQETQEYRLYREKKTAPWITRIPQELVKKGQFPIPSITWEHAGRYRCYYGSDTSQWSASSDPLELVVTGVYIKPTLSAQPSPVVNSGGNVTLQCDSQVAFDGFILCKEGEDEHPQCLNSQPHARGSSRAIFSVGPVSPSRRWWYRCYAYMSWSPYEWSLPSDLLELDVDG
notes: also called clone 83 (c83) ILT-2 polypeptide
B2: SEQ ID NO 68 (receptor)
chain: MGHLPKPTLWAEPGSVITMDQPVTLRCQGGQETQEYRLYREKKTAPWITRIPQELVKKGQFPIPSITWEHAGRYRCYYGSDTSQWSASSDPLELVVTGVYIKPTLSAQPSPVVNSGGNVTLQCDSPFIADGFILCKEGEDEHPQCLNSQPHARGSSRAIFSVGPVSPSRRWWYRCYAYMSWSPYEWSLPSDLLELDVDG
B3: SEQ ID NO 41 (receptor)
chain: B2 chain with S83A, Q84G, W85R, A87E, P126Q, F127V, I128A, A129F
B4: SEQ ID NO 69 (receptor)
chain: B2 chain with P126M, I128L, A129V
B5: SEQ ID NO 66 (receptor)
chain: B2 chain with I128L, A129S, R170K
B6: SEQ ID NO 33 (receptor)
chain: MGHLPKPTLWAEPGSVITMDQPVTLRCQGGQETQEYRLYREKKTAPWITRIPQELVKKGQFPIPSITWEHAGRYRCYYGSDTAGRSESSDPLELVVTGVYIKPTLSAQPSPVVNSGGNVTLQCDSQVAFDGFILCKEGEDEHPQCLNSQPHARGSSRAIFSVGPVSPSRRWWYRCYAYVAWAPYEWSLPSDLLELDVDG
B7: SEQ ID NO 64 (receptor)
chain: B2 chain with I128Q
B8: SEQ ID NO 67 (receptor)
chain: B2 chain with I128V, A129S
B9: SEQ ID NO 31 (receptor)
chain: B6 chain with V179P, A180I, A182T
B10: SEQ ID NO 62 (receptor)
chain: B2 chain with I128L, A129T
B11: SEQ ID NO 63 (receptor)
chain: B2 chain with F127W, I128L
B12: SEQ ID NO 35 (receptor)
chain: B6 chain with V179M, A180N
B13: SEQ ID NO 61 (receptor)
chain: B2 chain with F127W, I128V
B14: SEQ ID NO 65 (receptor)
chain: B2 chain with D130E
B15: SEQ ID NO 37 (receptor)
chain: B6 chain with V179P, A182T
B16: SEQ ID NO 39 (receptor)
chain: B6 chain with V179M, A180S
B17: SEQ ID NO 60 (receptor)
chain: MGHLPKPTLWAEPGSVITMDQPVTLRCQGGQETQQYRLYREKKTAPWITRIPQELVKKGQFPIPSITWEHAGRYRCYYGSDTRQWSASSDPLELVVTGVYIKPTLSAQPSPVVNSGGNVTLQCDSQVAFDGFILCKEGEDDHPQCLNSQPHARGSSRAIFSVGPVSPSRRWRYRCYAYDSNSPYEWTRGSDLLELDVDG
B18: SEQ ID NO 29 (receptor)
chain: MHLPKPTLWAEPGSVITLQSPVTLRCQGGQETQQYRLYREKKTAPWITRIPQELVKKGQFPIPSITWEHAGRYRCYYGSDTRQWSASSDPLELVVTGVYIKPTLSAQPSPVVNSGGNVTLQCDSQVAFDGFILCKEGEDDHPQCLNSQPHARGSSRAIFSVGPVSPSRRWRYRCYAYMSWSPYEWSLPSDLLELDVDG
B19: SEQ ID NO 42 (receptor)
chain: B18 chain with V22L, M178D, W180N
B20: SEQ ID NO 24 (receptor)
chain: B18 chain with M178P, S179I, S181T
B21: SEQ ID NO 26 (receptor)
chain: B18 chain with S179N, S181A
B22: SEQ ID NO 25 (receptor)
chain: B18 chain with M178V, S179A, S181A
B23: SEQ ID NO 28 (receptor)
chain: B18 chain with S181A
B24: SEQ ID NO 49 (receptor)
chain: B18 chain with V22L
B25: SEQ ID NO 27 (receptor)
chain: B18 chain with M178P, S179A, S181T
B26: SEQ ID NO 50 (receptor)
chain: B18 chain with V22L, S181A
B27: SEQ ID NO 6 (receptor)
chain: B18 chain with M178D, W180N
B28: SEQ ID NO 22 (receptor)
chain: MAGHLPKPTLWAEPGSVITMDQPVTLRCQGGQETQEYRLYREKKTAPWITRIPQELVKKGQFPIPSITWEHAGRYRCYYGSDTSQWSASSDPLELVVTGVYIKPTLSAQPSPVVNSGGNVTLQCDSQVAFDGFILCKEGEDEHPQCLNSQPHARGSSRAIFSVGPVSPSRRWWYRCYAYGRWLPYEWSLPSDLLELDVD

These binders were tested against Class I pMHC on Mel 624 target cells (assay: cell-based or functional assay).
With B1 the “Average IC50, inhibition of CTL activation (IFN-γ ELISPOT)” value was 96 nM and the “IC50, inhibition of CTL activation (IFN-γ ELISPOT, Mel 624 target cells, MART-1 specific T cell clone KA/C5)” value was 76 nM and 94 nM and 117 nM.

Each binder was assayed against T1, CEA-derived … (SEQ ID NO: 71)-HLA-A*0201 complex (biotin on the C-terminal biotinylation tag (enzymatic, BirA)) (assay: Biacore SPR, pMHC immobilised).
T1 construct: also called soluble biotinylated HLA-A2-peptide complex; not shown: C-terminal biotinylation tag that replaces the transmembrane and cytoplasmic domains
Protocol: SPR measures changes in refractive index expressed in response units (RU) near a sensor surface within a small flow cell, a principle that can be used to detect receptor ligand interactions and to analyse their affinity and kinetic parameters. The probe flow cells were prepared by immobilising the pMHC complexes in flow cells via biotin-tag binding. The assay was then performed by passing soluble ILT over the surfaces of the different flow cells at a constant flow rate, measuring the SPR response in doing so.
Work on B2 yielded a Kd of at most 1000 nM and a koff of at most 2 s⁻¹.
Work on B3 yielded a Kd of at most 1000 nM and a koff of at most 2 s⁻¹.
In the case of B4, the Kd is reported as at most 1000 nM and the koff is reported as at most 2 s⁻¹.
For B5, the Kd was at most 1000 nM and the koff was at most 2 s⁻¹.
With B6 the Kd was at most 1000 nM and the koff was at most 2 s⁻¹.
With B7 the Kd was at most 1000 nM and the koff was at most 2 s⁻¹.
In the case of B8, the Kd is reported as at most 1000 nM and the koff is reported as at most 2 s⁻¹.
With B9 the Kd was at most 1000 nM and the koff was at most 2 s⁻¹.
Binder B10 has a Kd of at most 1000 nM and a koff of at most 2 s⁻¹.
Work on B11 yielded a Kd of at most 1000 nM and a koff of at most 2 s⁻¹.
B12 gave a Kd of at most 1000 nM and a koff of at most 2 s⁻¹.
B13 was tested, and the Kd was at most 1000 nM and the koff was at most 2 s⁻¹.
B14 gave a Kd of at most 1000 nM and a koff of at most 2 s⁻¹.
In the case of B15, the Kd is reported as at most 1000 nM and the koff is reported as at most 2 s⁻¹.
Work on B16 yielded a Kd of at most 1000 nM and a koff of at most 2 s⁻¹.
For B1, the Kd was at most 1000 nM and the koff was at most 2 s⁻¹.
With B17 the Kd was at most 1000 nM and the koff was at most 2 s⁻¹.
B18 gave a Kd of at most 1000 nM and a koff of at most 2 s⁻¹.
Work on B19 yielded a Kd of at most 1000 nM and a koff of at most 2 s⁻¹.
B20 was tested, and the Kd was at most 1000 nM and the koff was at most 2 s⁻¹.
Work on B21 yielded a Kd of at most 1000 nM and a koff of at most 2 s⁻¹.
Binder B22 has a Kd of at most 1000 nM and a koff of at most 2 s⁻¹.
With B23 the Kd was at most 1000 nM and the koff was at most 2 s⁻¹.
With B24 the Kd was at most 1000 nM and the koff was at most 2 s⁻¹.
For B25, the Kd was at most 1000 nM and the koff was at most 2 s⁻¹.
Work on B26 yielded a Kd of at most 1000 nM and a koff of at most 2 s⁻¹.
With B27 the Kd was at most 1000 nM and the koff was at most 2 s⁻¹.
Work on B28 yielded a Kd of at most 1000 nM and a koff of at most 2 s⁻¹.
